The values that follow come from article PMC3223699 (Cell Death & Disease, 2011).

Ends that are not written are not given here. A value given as a limit tells only on which side of the number the result lay.

The test system of one experiment is P. falciparum. As to conditions: asexual stage P. falciparum; ref [30], [31]; cited from earlier work.
For a further experiment, the system named is P. falciparum 3D7. As to the kind of experiment: Recovery of treated parasite culture after peptide removal. The class given is cell-based, Plasmodium falciparum. As to conditions: 50 μM (~EC50), removed at 4 h, then grown 24 h.
Experiment [1] has as its target recombinant PfClpQ, mature region (38-170 aa) (P. falciparum). As to the kind of experiment: SPR.

Consider `CCN(CC)CCCC(C)Nc1ccnc2cc(Cl)ccc12` (centres unmarked) [chloroquine], for which the “apoptosis-like features (in words)” value with P. falciparum was “loss of mitochondrial membrane potential (Δψm), activation of caspase-like cytseine proteases and nuclear DNA fragmentation”.

With FIKQYDLKKYII [FI-peptide], in the experiment with P. falciparum 3D7, the “growth inhibition after peptide removal at 4 h” value was less than 20%.

B1: FI-peptide, 12-amino-acid synthetic peptide corresponding to the C terminus of PfClpY (peptide)
peptide: FIKQYDLKKYII
Turning to B1, in experiment [1], the Kd was 62.4 µM, the koff worked out at 0.00976 s⁻¹ and the kon was determined as 157 M⁻¹ s⁻¹.
